For one data set, the system named is human erythrocytes. The experiment in a line: Erythrocytes hemagglutination. The following applies: blood group not named. The data set is classed as cell-based.
The nature of data set [1]: Stability of 125I-odorranalectin in mice plasma in vitro. The class given is in vitro ADME. Particulars: mice plasma 100% (v/v) and 50% in PBS pH 7.4, 5 µCi, 37 °C, sampled 0-5 h; radiochemical purity by silica gel paper chromatography and HPLC with radioactive detector. As for the experimental part:
In order to evaluate the stability of ^125I- odorranalectin in vitro, a degradation experiment of ^125I-odorranalectin in mice plasma was performed. The details are provided in the supplementary materials (Materials and Methods S1).
Stability of ^125I-odorranalectin in vitro. In order to evaluate the stability of ^125I- odorranalectin in vitro, a degradation experiment of ^125I-odorranalectin in mice plasma was performed. Briefly, 5 µCi ^125I-odorranalectin (about 10 µl) was added to 790 µl plasma (100%, v/v) freshly prepared and 400 µL plasma (50%) admixed with 390 µl PBS (pH 7.4) in two 1.5-ml centrifuge tubes, respectively, which maintained at 37 °C in a rolling water-bath incubator. Then at each time point (0, 1, 2, 3, 4 and 5 h), a glass microcap was used to take samples for silica gel paper chromatography (SGPC) analysis and high-performance liquid chromatography (HPLC) for calculating the radiochemical purity of ^125I-odorranalectin. In detail, the developing agent of SGPC was methanol: water = 85:15 (v/v); After spotted and the solvent reached the frontier, the silica gel paper strip was dried and cut to ten equations (Fig. S3 and Table S7), and then set in 10 tubes, following determined radiocounting of each piece in a SN-695 Intellectual Radio-immunity γ Measurement (Shanghai Institute of Nuclear Research Ri Huan Instrument Factory, China), respectively. […]

The nature of data set [2]: SPR, odorranalectin and its mutants binding L-fucose. The following applies: peptide immobilized, L-fucose as analyte, NA = no binding to L-fucose, read-out: binding affinity (KD). As for the experimental part: Real time detection of odorranalectin and its mutants binding to glycoproteins and L-fucose was recorded by using a Biacore 3000 [21]–[24]. The details are provided in the supplementary materials (Materials and Methods S1).
SPR Analysis. Real time detection of odorranalectin and its mutants binding to glycoproteins and L-fucose was recorded by using a Biacore 3000 [21-24]. Odorranalectin was immobilized covalently via their primary amines to carboxyl groups within a dextran layer on the sensor chip CM-5 according to the manufacturer’s specifications. After chip activation with 0.4 M 1-ethyl-3- (3-dimethylaminopropyl) carbodiimide hydrochloride and 10 mM N-hydroxysuccinimide, odorranalectin or its mutants (in 10 mM sodium acetate buffer, pH 4.0) at a concentration of 100 μg/ml was passed through the flow cells at a rate of 5 μl/min. After immobilization, the chip was capped by exposure to 1 M ethanolamine (pH 8.5).
All analyses were performed at a flow rate of 30 μl/min. Before loading of analytes, the chip was equilibrated with 10 mM HEPES-buffered saline containing 3 mM EDTA and 0.005% surfactant P-20, pH 7.4 (HBS-EP). […]
Association and dissociation rate constants (ka and kd) were calculated by using BIA evaluation 4.0 software (Biacore AB, Sweden). The affinity constant (KD) was calculated from the ka and kd. […]

Data set [3] is described as follows: Tissue distribution of 125I-odorranalectin in vivo. Particulars: 400 µCi·kg^-1, mice, 5-300 min, Mean ± SD, n=3. Further details: species or system KM mice. As for the experimental part:
Sixty-three female KM mice (18∼22 g) were grouped randomly into three groups receiving oral, intravenous and intranasal administration of ^125I-odorranalectin at equal radiation dose (400 µCi·kg^−1), respectively. The detail procedures are provided in the supplementary materials (Materials and Methods S1).
Each experiment was carried out in triplicate. Values are given as means±SD. All the concentration data were plotted directly as radiocounting-time curves of the blood and tissues, and the area under the curve (AUC0→t) was calculated by the trapezoidal rule. The statistical differences between per oral or intranasal administrations and intravenous administration were assessed using student's t test and P<0.05 as statistical significance.
Tissue distribution of ^125I-odorranalectin in vivo. Sixty-three female KM mice (18~22 g) were grouped randomly to three groups receiving oral, intravenous and intranasal administration at equal radiation dose (400 µCi·kg^-1), respectively. The procedure for intranasal administration was performed gently and slowly so as to allow the mice to inhale all of the preparations (each nostril 10 µl). At different time intervals (5, 15, 30, 60, 120, 180 and 300 min) following administration, blood sample was collected via eye puncture; subsequently, the mice were humanly sacrificed, and tissues such as heart, liver, spleen, lung, stomach (content removed), kidney and brain were harvested and stuffed into a special tube after the remnant blood was blotted by tissue paper, following weighing, respectively. Finally, the radiocounting of each tissue was determined in a SN-695 Intellectual Radio-immunity γ Measurement to evaluate odorranalectin intake.
Data analysis. Each experiment was carried out in triplicate. Values are given as means ± SD. All the concentration data were plotted directly as radiocounting-time curves of the blood and tissues, and the area under curve (AUC0→t) was calculated by the trapezoidal rule. The statistical differences between per oral or intranasal administrations and intravenous administration were assessed using student’s t test and P< 0.05 as statistical significance.

Consider 3 compounds from paper PMC2440032, “Odorranalectin Is a Small Peptide Lectin with Potential for Drug Delivery and Targeting” (PLoS ONE, 2008).

pKd: −log10 of the molar value. Positions of bridges follow the written chain, without caps; N, C: chain ends. Residues, ends and D or L forms follow the SMILES beside them. No end group written: not given here.

For the compound `CC(C)C[C@@H]1NC(=O)[C@H](C(C)C)NC(=O)CNC(=O)[C@H](CC(N)=O)NC(=O)[C@@H]2CCCN2C(=O)[C@H](Cc2ccc(O)cc2)NC(=O)[C@H](CCCNC(=N)N)NC(=O)[C@H](Cc2ccccc2)NC(=O)[C@@H](NC(=O)[C@H](CCCCN)NC(=O)[C@@H]2CCCN2C(=O)[C@H](CO)NC(=O)[C@H](C)NC(=O)[C@@H](N)Cc2ccc(O)cc2)CSSC[C@@H](C(=O)N[C@H](C(=O)O)[C@@H](C)O)NC(=O)[C@H](C)NC1=O` [odorranalectin] (HELM PEPTIDE1{Y.A.S.P.K.C.F.R.Y.P.N.G.V.L.A.C.T}$PEPTIDE1,PEPTIDE1,6:R3-16:R3$$$V2.0), in the data set with human erythrocytes, the “minimum concentration (MIC) to agglutinate intact human erythrocytes” value was found to be 0.75 µg/mL. For the same compound, the “Time of stability in mice plasma” value in data set [1] is on record as “more than 5 hours”.

On to “YASPGGFRYPNGVLACT [Odorranalectin T17/G17]”, for which, in data set [2], the pKd is 2.09.

For “^125I-odorranalectin: odorranalectin labeled by 125I with iodogen method (YASPKCFRYPNGVLACT; disulfide 6-16; ends not checked; also: 125I on a tyrosine, which one is not given here)”, in data set [3] (in (intranasal)), the “AUC Blood” value is on record as 6.77±3.05 *10^7 CPM·min, the “AUC Brain” value is 0.36±0.15 *10^7 CPM·min, the “AUC Heart” value is 2.88±1.16 *10^7 CPM·min and the “AUC Kideny” value was 5.17±2.10 *10^7 CPM·min. In data set [3] (in (intranasal)), the “AUC Liver” value is given as 3.53±1.50 *10^7 CPM·min, the “AUC Lung” value is listed as 12.50±3.77 *10^7 CPM·min, the “AUC Spleen” value is listed as 4.48±1.86 *10^7 CPM·min and the “AUC Stomach” value is reported as 125.61±44.28 *10^7 CPM·min. In addition, in data set [3] (iv), the “AUC Blood” value is listed as 5.41±1.11 *10^7 CPM·min, the “AUC Brain” value was 0.46±0.047 *10^7 CPM·min, the “AUC Heart” value is recorded as 3.37±0.51 *10^7 CPM·min and the “AUC Kideny” value is 8.47±1.41 *10^7 CPM·min. Further, in data set [3] (iv), the “AUC Liver” value is reported as 98.51±6.22 *10^7 CPM·min, the “AUC Lung” value was 246.41±62.56 *10^7 CPM·min, the “AUC Spleen” value is reported as 64.82±8.61 *10^7 CPM·min and the “AUC Stomach” value is 20.90±3.09 *10^7 CPM·min. Besides, in data set [3] (po), the “AUC Blood” value is recorded as 4.89±0.69 *10^7 CPM·min, the “AUC Brain” value is recorded as 0.25±0.024 *10^7 CPM·min, the “AUC Heart” value is recorded as 1.99±0.24 *10^7 CPM·min and the “AUC Kideny” value is 3.84±0.76 *10^7 CPM·min. Moreover, in data set [3] (po), the “AUC Liver” value is on record as 2.42±0.29 *10^7 CPM·min, the “AUC Lung” value is 4.02±0.51 *10^7 CPM·min, the “AUC Spleen” value is 3.60±0.35 *10^7 CPM·min and the “AUC Stomach” value is given as 126.64±32.27 *10^7 CPM·min. The “Time of stability in mice plasma” value in data set [1] is reported as “at least 5 hours”.
